Assay results published in patent US20240116985A1 (published 2024).
Each block holds one binder with its values, some of them ahead of it. Starred links: 1 amine or outer side, 2 acyl side, 3 side chain; linkers in the order of their positions; H or OH if unused. Positions of bridges follow the written chain, without caps; N, C: chain ends. Non-standard residues stand in square brackets, D forms with d. Primed or numbered codes have the meaning given here. *: point of attachment. (4AcMePip)GAbu = (S)-2-amino-4-(N-(carboxymethyl)-1-methylpiperidine-4-carboxamido)butanoic acid, CN1CCC(C(=O)N(CC[C@H](N[*:1])C(=O)[*:2])CC(=O)[*:3])CC1; PyrS2″ = (S)-3-amino-1-((pent-4-en-1-yloxy)carbonyl)pyrrolidine-3-carboxylic acid (stapling residue), C=CCCCOC(=O)N1CC[C@@](N[*:1])(C(=O)[*:2])C1; (Me2NPr)GAbu = (S)-2-amino-4-(N-(carboxymethyl)-3-(dimethylamino)propanamido)butanoic acid, CN(C)CCC(=O)N(CC[C@H](N[*:1])C(=O)[*:2])CC(=O)[*:3]; (MorphAc)GAbu = (S)-2-amino-4-(N-(carboxymethyl)-2-morpholinoacetamido)butanoic acid, O=C(CN1CCOCC1)N(CC[C@H](N[*:1])C(=O)[*:2])CC(=O)[*:3]; TfeGA = (S)-2-amino-3-((carboxymethyl)(2,2,2-trifluoroethyl)amino)propanoic acid, O=C([C@H](CN(CC(=O)[*:3])CC(F)(F)F)N[*:1])[*:2]; PyrS2 = (S)-3-amino-1-((pent-4-en-1-yloxy)carbonyl)pyrrolidine-3-carboxylic acid, C=CCCCOC(=O)N1CC[C@@](N[*:1])(C(=O)[*:2])C1; B5(22) = 2-amino-2-(pent-4-en-1-yl)hept-6-enoic acid (two alkene side chains), C=CCCCC(CCCC=C)(N[*:1])C(=O)[*:2]; HypEs5 = (2R,4S)-4-(pent-4-enoyloxy)pyrrolidine-2-carboxylic acid, C=CCCC(=O)O[C@H]1C[C@H](C(=O)[*:2])N([*:1])C1; GAbu = (S)-2-amino-4-((carboxymethyl)amino)butanoic acid, O=C([C@H](CCNCC(=O)[*:3])N[*:1])[*:2]; B5(3) = 2,2-bis(4-pentenyl)glycine (stitching residue), C=CCCCC(CCCC=C)(N[*:1])C(=O)[*:2]; B5 = 2-amino-2-(pent-4-en-1-yl)hept-6-enoic acid, C=CCCCC(CCCC=C)(N[*:1])C(=O)[*:2]; Phenylacetyl(2,3,4,5,6-F5) = O=C(Cc1c(F)c(F)c(F)c(F)c1F)*; Benzoyl(2,3,4,5,6-F5) = O=C(c1c(F)c(F)c(F)c(F)c1F)*; Acetyl(4-Me-piperazin-1-yl) = CN1CCN(CC(=O)*)CC1; Phe(3-COOH) = N[C@@H](Cc1cccc(C(=O)O)c1)C(=O)O; Phe(3-F) = N[C@@H](Cc1cccc(F)c1)C(=O)O; Phe(4-F) = N[C@@H](Cc1ccc(F)cc1)C(=O)O; 1Nal = N[C@@H](Cc1cccc2ccccc12)C(=O)O; Bta = N[C@@H](Cc1csc2ccccc12)C(=O)O; αAllylPro = C=CC[C@@]1(C(=O)O)CCCN1; tBuAla = CC(C)(C)C[C@H](N)C(=O)O; 3Thi = N[C@@H](Cc1ccsc1)C(=O)O; Cit = NC(=O)NCCC[C@H](N)C(=O)O; hSer = N[C@@H](CCO)C(=O)O

What was measured:
B-cat-Halo = biological target: T1, B-cat-Halo (UniProt P35222 1-781); test: cell-based or functional assay
T1 sequence (looked up): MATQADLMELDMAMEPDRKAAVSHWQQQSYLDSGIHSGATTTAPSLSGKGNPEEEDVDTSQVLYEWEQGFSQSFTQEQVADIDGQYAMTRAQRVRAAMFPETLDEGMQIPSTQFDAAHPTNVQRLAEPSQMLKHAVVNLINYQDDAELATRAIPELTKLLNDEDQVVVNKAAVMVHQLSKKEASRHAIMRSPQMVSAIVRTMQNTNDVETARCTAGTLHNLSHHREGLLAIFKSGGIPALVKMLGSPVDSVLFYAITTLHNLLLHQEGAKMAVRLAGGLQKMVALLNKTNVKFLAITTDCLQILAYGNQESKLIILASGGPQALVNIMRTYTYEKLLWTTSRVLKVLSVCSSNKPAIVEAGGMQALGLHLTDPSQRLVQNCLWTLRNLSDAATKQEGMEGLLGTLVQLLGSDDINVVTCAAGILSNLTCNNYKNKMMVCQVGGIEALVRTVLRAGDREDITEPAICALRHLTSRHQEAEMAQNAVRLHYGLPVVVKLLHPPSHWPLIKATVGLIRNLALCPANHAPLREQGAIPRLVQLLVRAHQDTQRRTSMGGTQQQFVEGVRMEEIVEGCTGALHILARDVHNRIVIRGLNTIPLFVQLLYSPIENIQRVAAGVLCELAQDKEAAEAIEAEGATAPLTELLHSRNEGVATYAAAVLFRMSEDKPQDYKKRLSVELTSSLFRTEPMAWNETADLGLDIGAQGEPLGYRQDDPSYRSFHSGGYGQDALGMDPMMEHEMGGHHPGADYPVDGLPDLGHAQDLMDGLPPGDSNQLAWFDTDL

[1] = biological target: T2, full-length beta-Catenin (Uniprot ID P35222) (Homo sapiens (Human), UniProt P35222 1-781); test: fluorescence polarization competition; peptide titrated against 10 nM full-length beta-catenin + 10 nM 5FAM-TCF4(10-53) probe
T2 construct: Said to be full-length in the fluorescence polarization assay; also called bCat; B-Catenin
T2 sequence: T1 sequence (looked up)
Experimental: The plate was incubated protected from light for 60 minutes at 20° C. prior to read. Reads were performed on a CLARIOstar plate reader (BMG Labtech) in duplicate, and data were fitted to a 1:1 binding model with hill slope using an in-house script. All provided concentrations are final concentrations.

[2] = biological target: T3, B-cat-Halo (beta-catenin HaloTag construct expressed in HEK293 cells) (UniProt P35222 1-781); test: cell-based or functional assay
T3 sequence (looked up): T1 sequence (looked up)

B1: I-2244 (peptide)
peptide: Ac-[αAllylPro]D[tBuAla][B5(22)]D[(Me2NPr)GAbu]AAFL[PyrS2][3Thi][Bta]Q-NH2
modifications: staple 1-4, 4-11
NanoBRET Abs IC50 (B-cat-Halo): 27.4 µM

B5: I-2249 (peptide)
peptide: Ac-[αAllylPro]D[tBuAla][B5(22)]D[(MorphAc)GAbu]AAFL[PyrS2][3Thi][Bta]Q-NH2
modifications: staple 1-4, 4-11
NanoBRET Abs IC50 (B-cat-Halo): 42.2 µM

B6: I-2250 (peptide)
peptide: Ac-[αAllylPro]D[tBuAla][B5(22)]D[GAbu](Acetyl(4-Me-piperazin-1-yl))AAFL[PyrS2][3Thi][Bta]Q-NH2
modifications: staple 1-4, 4-11
NanoBRET Abs IC50 (B-cat-Halo): 36.2 µM

B7: I-613 (peptide)
peptide: XDIXDRAAFQXFXQ
modifications: not fully specified; Ac-PL3-Asp-Ile-B5-Asp-Arg-Ala-Ala-Phe-Gln-S8-Phe-BztA-Gln-NH2; N-terminal acetyl, C-terminal amide; non-natural PL3 (1), B5 (4), S8 (11), BztA (13); staples PL3-B5 and B5-S8 by olefin metathesis
notes: Stapled peptide; Earlier-eluting staple isomer composition
EC50 [1]: 1.63 µM

B11: I-618 (peptide)
peptide: XDLXDEAAFTXFXH
modifications: not fully specified; Ac-PL3-Asp-Leu-B5-Asp-Glu-Ala-Ala-Phe-Thr-S8-Phe-BztA-His-NH2; N-terminal acetyl, C-terminal amide; non-natural PL3 (1), B5 (4), S8 (11), BztA (13); staples PL3-B5 and B5-S8 by olefin metathesis
notes: Stapled peptide; Later-eluting staple isomer composition
EC50 [1]: 0.135 µM

B12: I-805 (peptide)
peptide: Ac-[αAllylPro]D[tBuAla][B5(3)]DDAAF[Cit][PyrS2″][3Thi][Bta]Q-NH2
modifications: staple 1-4, 4-11
NanoBRET Abs IC50 [2]: 18.5 µM

B13: I-804 (peptide)
peptide: Ac-[αAllylPro]D[tBuAla][B5(3)]DDAAF[hSer][PyrS2″][3Thi][Bta]H-NH2
modifications: staple 1-4, 4-11
NanoBRET Abs IC50 [2]: 13.5 µM

B14: I-617 (peptide)
peptide: XDLXDEAAFTXFXH
modifications: not fully specified; Ac-PL3-Asp-Leu-B5-Asp-Glu-Ala-Ala-Phe-Thr-S8-Phe-BztA-His-NH2; N-terminal acetyl, C-terminal amide; non-natural PL3 (1), B5 (4), S8 (11), BztA (13); staples PL3-B5 and B5-S8 by olefin metathesis
notes: as for B7
EC50 [1]: 0.253 µM

B15: I-623 (peptide)
peptide: XDLXDEAAFTXFXQ
modifications: not fully specified; Ac-PL3-Asp-Leu-B5-Asp-Glu-Ala-Ala-Phe-Thr-S8-Phe-BztA-Gln-NH2; N-terminal acetyl, C-terminal amide; non-natural PL3 (1), B5 (4), S8 (11), BztA (13); staples PL3-B5 and B5-S8 by olefin metathesis
notes: as for B11
EC50 [1]: 0.103 µM

B16: I-622 (peptide)
peptide: XDLXDEAAFTXFXQ
modifications: not fully specified; Ac-PL3-Asp-Leu-B5-Asp-Glu-Ala-Ala-Phe-Thr-S8-Phe-BztA-Gln-NH2; N-terminal acetyl, C-terminal amide; non-natural PL3 (1), B5 (4), S8 (11), BztA (13); staples PL3-B5 and B5-S8 by olefin metathesis
notes: as for B7
EC50 [1]: 0.23 µM

B18: I-794 (peptide)
peptide: Ac-[αAllylPro]D[tBuAla][B5]DDAAFN[PyrS2][1Nal][Bta]H-NH2
modifications: staple 1-4, 4-11
NanoBRET Abs IC50 [2]: 26.4 µM

B19: I-638 (peptide)
peptide: XDIXDEAAFQXFXP
modifications: not fully specified; Ac-PL3-Asp-Ile-B5-Asp-Glu-Ala-Ala-Phe-Gln-S8-Phe-BztA-Pro-NH2; N-terminal acetyl, C-terminal amide; non-natural PL3 (1), B5 (4), S8 (11), BztA (13); staples PL3-B5 and B5-S8 by olefin metathesis
notes: as for B11
EC50 [1]: 3.88 µM

B20: I-2245 (peptide)
peptide: Ac-[αAllylPro]D[tBuAla][B5(22)]D[(4AcMePip)GAbu]AAFL[PyrS2][3Thi][Bta]Q-NH2
modifications: staple 1-4, 4-11
NanoBRET Abs IC50 (B-cat-Halo): > 20 µM

More lines, now with the values ahead:

NanoBRET Abs IC50 (B-cat-Halo): 4.3 µM
B2: I-2259 (peptide)
peptide: Ac-[αAllylPro]D[tBuAla][B5(3)]D[Phe(3-COOH)]AAFF[PyrS2″][3Thi][Bta]A-NH2
modifications: staple 1-4, 4-11

NanoBRET Abs IC50 (B-cat-Halo): 6.4 µM
B3: I-2251 (peptide)
peptide: Ac-[αAllylPro]D[tBuAla][B5(22)]D[GAbu](Phenylacetyl(2,3,4,5,6-F5))AAFL[PyrS2][3Thi][Bta]Q-NH2
modifications: staple 1-4, 4-11

NanoBRET Abs IC50 (B-cat-Halo): 4.3 µM
B4: I-2263 (peptide)
peptide: Ac-[αAllylPro]D[tBuAla][B5(3)]D[Phe(3-COOH)]AAFL[PyrS2″][Phe(4-F)][Bta]A-NH2
modifications: staple 1-4, 4-11

NanoBRET Abs IC50 (B-cat-Halo): 2.9 µM
B8: I-2257 (peptide)
peptide: Ac-[αAllylPro]D[tBuAla][B5(3)]D[Phe(3-COOH)]AAFL[PyrS2″][3Thi][Bta]A-NH2
modifications: staple 1-4, 4-11

NanoBRET Abs IC50 (B-cat-Halo): 3.1 µM
B9: I-2260 (peptide)
peptide: Ac-[αAllylPro]D[tBuAla][B5(3)]D[Phe(3-COOH)]AA[Phe(3-F)]L[PyrS2″][3Thi][Bta]A-NH2
modifications: staple 1-4, 4-11

NanoBRET Abs IC50 (B-cat-Halo): 17.5 µM
B10: I-2252 (peptide)
peptide: Ac-[αAllylPro]D[tBuAla][B5(22)]D[GAbu](Benzoyl(2,3,4,5,6-F5))AAFL[PyrS2][3Thi][Bta]Q-NH2
modifications: staple 1-4, 4-11

NanoBRET Abs IC50 (B-cat-Halo): > 20 µM
B17: I-2265 (peptide)
peptide: Ac-[HypEs5]D[tBuAla][B5(3)]D[TfeGA]AAFL[PyrS2″][3Thi][Bta]Q-NH2
modifications: staple 1-4, 4-11; also: staple double bonds reduced to -CH2-CH2-
